Measurements taken from patent publication US20250340637A1 (ABPRO, published 2025).

B1: ABP100s.1 (antibody, V domains shown)
VH: EVQLVESGGGLVQPGGSLRLSCAASGFTFNTYAMNWVRQAPGKGLEWVARIRSKYNNYATYYADSVKGRFTISRDDSQSSLYLQMNSLKTEDTAVYYCVRHGNFGNSYVSWFAYWGQGTLVTVSS
VL: QAVVTQEPSFSVSPGGTVTLTCGSSTGAVTTSNYANWVQQTPGQAFRGLIGGTNKRAPGVPDRFSGSLIGDKAALTITGAQADDESDYFCALWYSNLWVFGGGTKLTVL
B2: anti-HER2×CD3 BsAb comprising the anti-CD3 VH and VL sequences of ABP100s.10.0 (bispecific antibody, V domains shown)
VH 1: not shown
VL 1: not shown
VH 2: EVQLVESGGGLVQPGGSLKLSCAASGFTFNTYAMNWVRQAPGKCLEWVARIRSKYNNYATYYADSVKDRFTISRDDSKNTAYLQMNSLKTEDTAVYYCVRHGNFGNSYVSWFAYWGQGTLVTVSS
VL 2: QTVVTQEPSLTVSPGGTVTLTCRSSTGAVTTSNYANWVQQKPGQAFRGLIGGTNKRAPGVPARFSGSLLGGKAALTLSGVQPEDEAIYFCALWYSNLWVFGCGTKLTVL
notes: Only the four variable domains are tied to the tested molecule; also called 10.0 clone; parental construct
B3: ABP100s.5.4 (antibody, V domains shown)
VH: EVQLVESGGGLVQPGGSLKLSCAASGFTFNTYAMNWVRQAPGKGLEWVARIRSKYNNYATYYADSVKDRFTISRDDSKNTAYLQMNSLKTEDTAVYYCVRHGNFGNSYVSWFAYWGQGTLVTVSS
VL: QTVVTQEPSLTVSPGGTVTLTCRSSTGAVTTSNYANWVQQKPGQAFRGLIGGTNKRAPGVPARFSGSLLGGKAALTLSGVQPEDEAIYFCALWYSNLWVFGGGTKLTVL
B4: ABP100s.7 (antibody, V domains shown)
VH: EVQLVESGGGLVQPGGSLKLSCAASGFTFNTYAMNWVRQASGKGLEWVARIRSKYNNYATYYADSVKDRFTISRDDSKNTAYLQMNSLKTEDTAVYYCVRHGNFGNSYVSWFAYWGQGTLVTVSS
VL: QTVVTQEPSLTVSPGGTVTLTCRSSTGAVTTSNYANWVQQKPGQAFRGLIGGTNKRAPGVPARFSGSLLGGKAALTLSGVQPEDEAIYFCALWYSNLWVFGGGTKLEIK
B5: ABP100s.2 (antibody, V domains shown)
VH: EVQLVESGGGLVQPGGSLRLSCAASGFTFNTYAMNWVRQAPGKGLEWVARIRSKYNNYATYYADSVKGRFTISRDDSKSSLYLQMNSLKTEDTAVYYCVRHGNFGNSYVSWFAYWGQGTLVTVSS
VL: QAVVTQEPSFSVSPGGTVTLTCGSSTGAVTTSNYANWVQQTPGQAFRGLIGGTNKRAPGVPDRFSGSLIGDKAALTITGAQADDESDYFCALWYSNLWVFGGGTKLTVL
B6: ABP100s.4 (antibody, V domains shown)
VH: EVQLVESGGGLVKPGGSLRLSCAASGFTFNTYAMNWVRQAPGKGLEWVARIRSKYNNYATYYADSVKGRFTISRDDAKSSLYLQMNSLRAEDTAVYYCVRHGNFGNSYVSWFAYWGQGTLVTVSS
VL: QAVVTQEPSFSVSPGGTVTLTCGSSTGAVTTSNYANWVQQTPGQAFRGLIGGTNKRAPGVPDRFSGSLIGDKAALTITGAQADDESDYFCALWYSNLWVFGGGTKLTVL
B7: ABP100s.3 (antibody, V domains shown)
VH: EVQLVESGGGLVKPGGSLRLSCAASGFTFNTYAMNWVRQAPGKGLEWVARIRSKYNNYATYYADSVKGRFTISRDDSQSSLYLQMNSLRAEDTAVYYCVRHGNFGNSYVSWFAYWGQGTLVTVSS
VL: QAVVTQEPSFSVSPGGTVTLTCGSSTGAVTTSNYANWVQQTPGQAFRGLIGGTNKRAPGVPDRFSGSLIGDKAALTITGAQADDESDYFCALWYSNLWVFGGGTKLTVL
B8: ABP100s.5 (antibody, V domains shown)
VH: EVQLVESGGGLVQPGGSLKLSCAASGFTFNTYAMNWVRQAPGKGLEWVARIRSKYNNYATYYADSVKDRFTISRDDSKNTAYLQMNSLKTEDTAVYYCVRHGNFGNSYVSWFAYWGQGTLVTVSS
VL: QTVVTQEPSLTVSPGGTVTLTCRSSTGAVTTSNYANWVQQKPGQAFRGLIGGTNKRAPGVPARFSGSLLGGKAALTLSGVQPEDEAIYFCALWYSNLWVFGGGTKLEIK
B9: ABP100s.10.3 (antibody, V domains shown)
VH: EVQLVESGGGLVQPGGSLKLSCAASGFTFNTYAMNWVRQAPGKCLEWVARIRSKYNNYATYYADSVKDRFTISRDDSKNTAYLQMNSLKTEDTAVYYCVRHGNFGNSYVSWFAYWGQGTLVTVSS
VL: QTVVTQEPSLTVSPGGTVTLTCRSSTGAVTTSNYANWVQQKPGQAFRGLIGGTNKRAPGVPARFSGSLLGGKAALTLSGVQPEDEAIYFCALWYSNLWVFGCGTKLTVL
B10: ABP100s.5.1 (antibody, V domains shown)
VH: EVQLVESGGGLVQPGGSLKLSCAASGFTFNTYAMNWVRQAPGKCLEWVARIRSKYNNYATYYADSVKDRFTISRDDSKNTAYLQMNSLKTEDTAVYYCVRHGNFGNSYVSWFAYWGQGTLVTVSS
VL: QTVVTQEPSLTVSPGGTVTLTCRSSTGAVTTSNYANWVQQKPGQAFRGLIGGTNKRAPGVPARFSGSLLGGKAALTLSGVQPEDEAIYFCALWYSNLWVFGCGTKLEIK
B11: ABP100s.10.2 (antibody, V domains shown)
VH: EVQLVESGGGLVQPGGSLKLSCAASGFTFNTYAMNWVRQAPGKCLEWVARIRSKYNNYATYYADSVKDRFTISRDDSKNTAYLQMNSLKTEDTAVYYCVRHGNFGNSYVSWFAYWGQGTLVTVSS
VL: QTVVTQEPSLTVSPGGTVTLTCRSSTGAVTTSNYANWVQQKPGQAFRGLIGGTNKRAPGVPARFSGSLLGGKAALTLSGVQPEDEAIYFCALWYSNLWVFGCGTKLTVL
B12: ABP100s.5.2 (antibody, V domains shown)
VH: EVQLVESGGGLVQPGGSLKLSCAASGFTFNTYAMNWVRQAPGKGLEWVARIRSKYNNYATYYADSVKDRFTISRDDSKNTAYLQMNSLKTEDTAVYYCVRHGNFGNSYVSWFAYWGCGTLVTVSS
VL: QTVVTQEPSLTVSPGGTVTLTCRSSTGAVTTSNYANWVQQKPGQCFRGLIGGTNKRAPGVPARFSGSLLGGKAALTLSGVQPEDEAIYFCALWYSNLWVFGGGTKLEIK
B13: ABP100s.6 (antibody, V domains shown)
VH: EVQLVESGGGLVQPGGSLKLSCAASGFTFNTYAMNWVRQAPGKGLEWVARIRSKYNNYATYYADSVKDRFTISRDDSKNTAYLQMNSLKTEDTAVYYCVRHGNFGNSYVSWFAYWGQGTLVTVSS
VL: QTVVTQEPSLTVSPGGTVTLTCRSSTGAVTTSNYANWVQQKPGQAFRGLIGGTNKRAPGVPARFSGSLLGGKAALTLSGVQPEDEAEYFCALWYSNLWVFGGGTKLEIK
B14: ABP100s.10.1 (antibody, V domains shown)
VH: EVQLVESGGGLVQPGGSLKLSCAASGFTFNTYAMNWVRQAPGKCLEWVARIRSKYNNYATYYADSVKDRFTISRDDSKNTAYLQMNSLKTEDTAVYYCVRHGNFGNSYVSWFAYWGQGTLVTVSS
VL: QTVVTQEPSLTVSPGGTVTLTCRSSTGAVTTSNYANWVQQKPGQAFRGLIGGTNKRAPGVPARFSGSLLGGKAALTLSGVQPEDEAIYFCALWYSNLWVFGCGTKLTVL

Molecular target: T1, HuCD3E (Homo sapiens, UniProt P07766 23-126, limits assumed)
T1 construct: Recombinant analyte in SPR and antigen in ELISA; also called human CD3; human CD3 epsilon
Assay: SPR, Biacore 8K; CD3 Affinity column: Hi

T1 sequence (P07766 23-126 limits assumed): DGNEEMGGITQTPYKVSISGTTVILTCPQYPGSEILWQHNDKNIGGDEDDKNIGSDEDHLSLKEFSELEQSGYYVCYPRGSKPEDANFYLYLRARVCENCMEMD

| Binder | Kd [nM] |
| --- | --- |
| B1 | < 10 |
| B2 | < 10 |
| B3 | < 10 |
| B4 | < 10 |
| B5 | < 10 |
| B6 | < 10 |
| B7 | < 10 |
| B8 | < 10 |
| B9 | < 10 |
| B10 | < 10 |
| B11 | < 10 |
| B12 | < 10 |
| B13 | < 10 |
| B14 | < 10 |
